From the nanobody polyreactivity screen of Harvey et al. (2022)

Assay: yeast display, Sf9 membrane polyspecificity reagent, FACS + sequencing; frameworks hold sequencing errors
Outline: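 Using colony PCR, genes from sorted yeast display clones were amplified, then sequenced on MiSeq at 2 × 250 and filtered by CDR length. The clones had been stained with 10% biotinylated, detergent-solubilized Sf9 membrane reagent for 1 hour at 4 °C and sorted by FACS into low and high (top ~1%) gates on anti-HA and streptavidin fluorescence. Polyreactivity labels come from the gate of origin.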

Sequence	polyreactivity (PSR sort gate)
QVQLVESGGGLVQAGGIHRLSCASTGRTFPAYAMGWYRQAPGKERELVAAITINGGYTYYADSVKGRFTISRDNAKNSVYLQMKSLKPEDTAVYYCAAYYDSPSHGYWGQVTQVTVSS	low polyreactivity
QVQLVESGGGLVQAGGIIRLSCDASGSTFVIYAMGWYRQAPGKERELVAVIDYSDDSTYYADSVKGRFTISRDNAKNTGYLQLNSVKPEVTEVYFCAAYVYYAKGSFDYWGQGTQVTVSS	high polyreactivity
QVQLVESGGGLVQAGGILRFSCAASGRTFKYYAMGWYRQAPGKERELVAAISYNGGSTFYADSVKGRFTISRDNAKNTVYLQLNSLKPEDTAVYYCAAGPRGTGKYYWGQGTQVTVSS	high polyreactivity
QVQLVESGGGLVQAGGILRLICAASGSIFYYNAMGWSRQAPGKERELVAAITKSGTRTNYADSVKGRFTISRDNAKNTVYLQMNSLKPEDTAVYDCAAEDQYYRYVCAYEYWGQGTQVTVSS	high polyreactivity
QVQLVESGGGLVQAGGILRLSCAASARIFTYKAMGWYRQAPGKERELVAAITNGGSTYYADSVKGRFTISRDNAKNTVYLQMNSMKPEDTAVYYCNRVVYRPRYRYGYWGQGTQVTVSS	high polyreactivity
QVQLVESGGGLVQAGGILRLSCAASGFIFAYYAMGWYRQAPGKEREFVAVITSSGGRTYYADSVKGRFTISRDNAKNTVYLQMNSLNPVDTAVYYCATSRGYANKYYYWGQGSQVTVSS	low polyreactivity
QVQLVESGGGLVQAGGILRLSCAASGFIFNRYAMGWSRQSPGKARELVADITGGSTYYADSVKGRFTISRDNAKNTVYLQMNSLKPEDTAVYYCAAYVWRYWHEYDYWGQGTQVTVSS	low polyreactivity
QVQLVESGGGLVQAGGILRLSCAASGFIFRLYAKGWYRQAPGKERGLVAAISSGTSTYYADSVKGRFTISRDNAKNTVYLQMNSLIPEDTAVYYCAARISRYPQDDSDYWGQGTQVTVSS	high polyreactivity
QVQLVESGGGLVQAGGILRLSCAASGFIFTANDMGWYIQAPGKVRELVAAISSGGRTYYADSVKGRFTISRDNAKNSVYFQKNSLKPEDTAVYYCARDLYVRNGQRARYDSWGQGTQVTVSS	high polyreactivity
QVQLVESGGGLVQAGGILRLSCAASGFTFGRYAMGRSRQAPGKEREFVAAISYTGTSTYYADSVKGRFTISRDNAKNTVYLQMNSRNPEDTAVYYCNAKWRSHYTQWSYDYWGQCTQVTVSS	high polyreactivity
QVQLVESGGGLVQAGGILRLSCAASGFTFSDNAMGWYIQAPGKERELVAAISRSGGRTYYADSVKGRFTISRDNAKNTVYLQMNSLKPEDTAVYYCAAYQYGMDYWGQGSQVTVSS	high polyreactivity
QVQLVESGGGLVQAGGILRLSCAASGHIFFYYNMGWYRQAPGKERELVAGITIGGSTNYADSVKGRFTISRDNAKNTVNLQMNSLTPEDTAVYYCAKGGEVSQGYTDEYDYWGLGTQVTVSS	low polyreactivity
QVQLVESGGGLVQAGGILRLSCAASGIIFNTNFMGWYRQAPGKERELVAAISRTNYADSVKGRFTISRDNAKNNVFLEMNSLHPEDTSVYDCIVELQYGRPGGQEFDYWGQGSQVTVSS	low polyreactivity
QVQLVESGGGLVQAGGILRLSCAASGINFLYYAMGWYREAPGKEMELVAAINGSGGNTYYADSVKGRFTISLDNAKNTVYLQMNRLKPEDTAVYYCNADFFVYSYQQWDEYYDYWGQGTQVTVSS	low polyreactivity
QVQLVESGGGLVQAGGILRLSCAASGITFRRSAKGWYRQAPGKERELVAGISYSGGTTYYADSVKGRFTISRDNAKNTVYLQMNSLKAEDTAVYYCAAKRISYTREGYSQYDDWGQGSQVTVSS	high polyreactivity
QVQLVESGGGLVQAGGILRLSCAASGLIFSYNTMGWYRHAPGKERELVAGNTSSGSTYYADSVKGRFTISRDNAKNSVYLQMNSLKPEDTAVYYCAAEWDDGRSWYWYYLVGFEYWGQGTQVTVSS	high polyreactivity
QVQLVESGGGLVQAGGILRLSCAASGLIFTYYAMGWYRQAPWKERELLAAINYSGGSTYYADSVKGRFTISRDNAKNTVYLQMNSLKPEDTAVYYCNAGYGEHPLSGYEYWGQSTQVTVSS	low polyreactivity
QVQLVESGGGLVQAGGILRLSCAASGLSFSWYDMGWYRQAPGKERELVAAITTDGDDTYYADSVKGRFTISRDNAKNTVYLQMNSLKPEDTAVYYCAADSELAIRYPDRDYDSWGQGTQVTVSS	low polyreactivity
QVQLVESGGGLVQAGGILRLSCAASGRIFNGYAMGWYRQAPGKERELVAAITSGGRTYADSVKGRFTISRDNAKNTVYLQMYSLKPEDTAVYYCAADAGRILFSGYDYWGQGTQVTVSS	low polyreactivity
QVQLVESGGGLVQAGGILRLSCAASGRIFYVNAMGWYRQAPGKERELVAAITWIDGSTYYADSVKGRFTISRDNAKNTVYLQMNSLKPEDTAVYYCAAGGYFYSFYYWGQGTQVTVSS	low polyreactivity
QVQLVESGGGLVQAGGILRLSCAASGRIKPRNAMGWYRQAPGKERELVAAISWDGGSTYYADSVKGRFTISRDNAKNTVYLQINSLKPVDTAVYYCNVYVSAGEEDEYWGQGTQVTVSS	low polyreactivity
